Assay [1] has as its system transgenic AD mice. As to conditions: oral administration with drinking water; cited from earlier work.
In assay [2] the target is T1, amyloid beta oligomers (Homo sapiens, UniProt P05067).
T1 construct: 1 mg lyophilized Aß1-42 and N-terminal biotinylated Aß1-42; biotin (only on part of the peptide molecules)
The experiment in a line: SPR binding kinetics, single-cycle, heterogeneous binding model (FIG. 3). The procedure: (§1) 1 mg lyophilized Aß1-42 and N-terminal biotinylated Aß1-42 were each dissolved in 1 ml 100% hexafluoroisopropanol (HFIP) and dissolved overnight at room temperature. For the oligomer and fibril preparation, non-biotinylated Aß was used with N-terminal biotinylated Aß at a ratio of 1:10 and the HFIP was evaporated (Concentrator 5301 from Eppendorf). The resultant Aß film, at a final concentration of 80 μM, was placed in sodium phosphate buffer (10 mM, pH 7.4) and incubated (RT, 600 rpm). The incubation time was 3 h for the oligomer preparation, and 24 h for the fibril preparation. 100% N-terminal biotinylated Aß1-42 without incubation was used for the preparation of monomers.
The density gradient centrifugation was carried out subsequent to the Aß preparation to purify the respective Aß species according to the size of the same. An iodixanol gradient in 10 mM sodium phosphate buffer, pH 7.4 with rising concentrations from 50% to 5% v/v iodixanol was used for this purpose. 100 μl of the Aß sample was applied and separated by way of ultracentrifugation (3 h, 4° C., 259000 g). Subsequently, the gradient was fractionated into 14 fractions, 140 μl each. Monomeric Aß are present in the first two top fractions, Aß oligomers in fractions 4 to 6, and Aß fibrils in fractions 11 to 13.
A T200 from Biacore (GE Healthcare) was used for SPR spectroscopy. The Aß species purified by way of density gradient centrifugation were directly immobilized on a sensor chip (Series S Sensor Chips SA) according to the manufacturer's instructions by way of biotin-streptavidin coupling. 1×PBS was used as the running buffer. Loading took place at 25° C. and a flow rate of 5 μl/min. Subsequently, the flow cells were freed from non-specifically bound ligand overnight at a steady flow of 30 μl/min.
Binding kinetics were likewise measured by way of SPR spectroscopy using a T200 device from Biacore (GE Healthcare). The standard conditions are 25° C. and a flow rate of 30 μl/min. Different lyophilizates of the D peptides were placed in the 1×PBS running buffer and serially diluted. The method used was a “single-cycle” kinetics method, wherein five increasing analyte concentrations were pumped over the immobilized flow cells. The contact times selected, depending on the analyte, were 90 to 120 s for association and dissociation and 1800 to 5400 s for the final dissociation. The sensorgrams were double referenced with the aid of an unloaded flow cell and the running buffer that was used. The binding curves were evaluated by way of kinetic fit models (heterogeneous binding model) using the Biacore T200 evaluation software (version 2.0).
FIGS. 2 to 4 show the results on the binding behavior of the cyclized peptides according to the invention (affinity study). The figures show data for the kinetic evaluation of the binding strength of the various candidates to amyloid beta monomers (FIG. 2), amyloid beta oligomers (FIG. 3), and amyloid beta fibrils (FIG. 4). The two binding constants that result when fitting a heterogeneous binding model are shown in each case, plotted as white bars and black bars. It is important to remember that a logarithmic scale is shown here, which means that minor differences in the bar size represent major differences in the dissociation constant KD. White bars are the respective low-affinity sites and the binding strengths thereof, and black bars show the high-affinity binding sites and the binding strengths thereof. […]
A general note: SPR reads the build-up and loss of mass on a sensor chip optically.

The subject of assay [3] is APPsDI mice. The assay is described as follows: Morris water maze (MWW) test, spatial memory (FIG. 5). The format is in vivo. The settings on record: five consecutive days, compared to saline. Here is the method: The test measures the spatial memory of animals, which here were genetically engineered APPsDI mice.
The time is measured in seconds that an animal requires to locate a platform hidden closely beneath the water surface in a water tank. This is measured in several experiments per day on several consecutive days. […] The search time is plotted in seconds on five consecutive days for mice that were treated with the peptide according to the invention cD3R (SEQ ID NO. 5), compared to placebo experiments (saline).

Assay [4] deals with T2, amyloid beta monomers (Homo sapiens, UniProt P05067).
T2 construct: 100% N-terminal biotinylated Aß1-42 without incubation
T2 sequence (P05067 672-713): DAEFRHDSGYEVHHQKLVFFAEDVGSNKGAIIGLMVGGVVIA
The assay is described as follows: SPR binding kinetics, single-cycle, heterogeneous binding model (FIG. 2). The settings on record: 25° C., high-affinity site. Here is the method: as §1
(§2) The density gradient centrifugation was carried out subsequent to the Aß preparation to purify the respective Aß species according to the size of the same. An iodixanol gradient in 10 mM sodium phosphate buffer, pH 7.4 with rising concentrations from 50% to 5% v/v iodixanol was used for this purpose. 100 μl of the Aß sample was applied and separated by way of ultracentrifugation (3 h, 4° C., 259000 g). […]
(§3) Binding kinetics were likewise measured by way of SPR spectroscopy using a T200 device from Biacore (GE Healthcare). […] The binding curves were evaluated by way of kinetic fit models (heterogeneous binding model) using the Biacore T200 evaluation software (version 2.0). […]

The target of assay [5] is T3, amyloid beta fibrils (Homo sapiens, UniProt P05067).
T3 construct: 1 mg lyophilized Aß1-42 and N-terminal biotinylated Aß1-42; biotin (only on part of the peptide molecules)
T3 sequence (P05067 672-713): as above
The experiment in a line: SPR binding kinetics, single-cycle, heterogeneous binding model (FIG. 4). The settings on record: 25° C., high-affinity site. The procedure: as §1, §2, §3

The target in assay [6] is T4, A beta monomer (Homo sapiens, UniProt P05067).
T4 construct: approximately 20 nM or 1.8 ng Aß 1-42
T4 sequence (P05067 672-713): as above
The experiment in a line: Density gradient centrifugation fractions treated with peptide, A beta size distribution (FIG. 1). The format is biochemical. The settings on record: fractions 1 to 2 of density gradient. The procedure:
(§4) Thereafter, the resultant fractions are treated with and without an active ingredient and determined by way of RP-HPLC, for example. In this way, it is possible to determine the effectiveness of the active ingredient.
(§5) A further method is described hereafter. The so-called QIAD (quantitative determination of interference with Aß aggregate size distribution) test can be used for the quantitative analysis of active ingredients. The method for quantitatively analyzing the influence of an active ingredient on the particle size distribution of amyloid peptides and/or proteins in a sample comprises the following steps. […] This change is established quantitatively. […] Finally, the concentration of A beta in the respective fraction is determined by completely denaturing the A beta species during a reverse phase (RP-)HPLC carried out subsequent to the fractionating. […] Eluting A beta is detected by way of UV absorption at 215 nm. […] Depending on the fraction, the mean value from multiple, for example six, experiments conducted independently of one another can be calculated with the resulting standard deviation. The advantage of HPLC analysis is that detection is very sensitive (such as approximately 20 nM or 1.8 ng Aß 1-42) and quantification is reliable independently of the state of aggregation and the solvent. […]

Assay [7] addresses T5, A beta oligomers (Homo sapiens, UniProt P05067).
T5 construct: approximately 20 nM or 1.8 ng Aß 1-42
The assay is described as above. In kind it is biochemical. The settings on record: fractions 4 to 8 (or 4 to 10) of density gradient; peptide 20 μM; versus control and linear D3. The procedure:
as §4, §5

“Also recorded” adds a separate entry of the source. Non-standard residues stand in square brackets, D forms with d. No end group written: not given here.

T1 sequence (P05067 672-713): as above
T5 sequence (P05067 672-713): as above

On to “rprtrlhthrnr ([dR][dP][dR][dT][dR][dL][dH][dT][dH][dR][dN][dR]) [D3, D-enantiomeric linear peptide known from WO 02/081505 A2]”, for which, in assay [1], the “cognitive abilities of treated mice” value is given as “significantly improved cognitive abilities” and the “plaque in treated mice” value is given as “considerably less plaque”. The “binding sites bound on amyloid beta oligomer” value in assay [2] (fit of SPR binding data) is given as “binds only a low-affinity site, but not a high-affinity site”.
For “rprtrlhthrnrr (cyclo([dR][dP][dR][dT][dR][dL][dH][dT][dH][dR][dN][dR][dR])) [cD3r]”, the “KD (kinetics), binding strength to amyloid beta oligomers” value in assay [2] (SPR, 25° C., high-affinity site, compared with other cyclized peptides) is “binds even more strongly by two orders of magnitude than the other cyclized peptides”. For the same substance, the “learning (search time to locate hidden platform)” value in assay [3] was “significant”. Further, the “KD (kinetics), binding affinity to amyloid beta monomers” value in assay [4] was “particularly high affinity”. In assay [5], the “KD (kinetics), binding strength to amyloid beta fibrils” value was “does very well”.
“rprtrlhthrnr (cyclo([dR][dP][dR][dT][dR][dL][dH][dT][dH][dR][dN][dR]); SMILES CC(C)C[C@H]1NC(=O)[C@@H](CCCNC(=N)N)NC(=O)[C@@H]([C@H](C)O)NC(=O)[C@@H](CCCNC(=N)N)NC(=O)[C@H]2CCCN2C(=O)[C@@H](CCCNC(=N)N)NC(=O)[C@@H](CCCNC(=N)N)NC(=O)[C@@H](CC(N)=O)NC(=O)[C@@H](CCCNC(=N)N)NC(=O)[C@@H](Cc2c[nH]cn2)NC(=O)[C@@H]([C@H](C)O)NC(=O)[C@@H](Cc2c[nH]cn2)NC1=O) [cD3, cyclized D3, N-terminal amino group and C-terminal carboxyl group coupled by an amide bond]”: the “number of low-affinity sites relative to high-affinity sites” value in assay [2] (from Rmax 79/21%) is reported as “approximately 4 times”. Moreover, the “Rmax, contribution of high-affinity site (KD2) to RU total loading” value in assay [2] (high-affinity site (KD2)) was found to be 21%. The “Rmax, contribution of low-affinity site to RU total loading” value in assay [2] (low-affinity site (white bar)) turned out to be 79%. Further, the “influence on the A beta monomer concentration” value in assay [6] is reported as “no influence”. Moreover, the “elimination / decrease of A beta oligomer concentration” value in assay [7] was “eliminates the oligomers in fractions 4 to 8 even more efficiently than linear D3; also recorded: clear decrease in the A beta oligomer concentration”.
For “rkrtrlhthrnr (cyclo([dR][dK][dR][dT][dR][dL][dH][dT][dH][dR][dN][dR])) [cD3P2K]”, in assay [5], the “KD (kinetics), binding strength to amyloid beta fibrils” value was “sub-pM binding range”.

The values above are taken from patent US10428127B2, “Cyclic, amyloid beta-binding peptides and the use thereof” (FORSCHUNGSZENTRUM JUELICH GMBH, priority 2013, dated 2019).
